Data reported in patent US20250042994A1 (HAINAN SIMCERE ZAIMING PHARMACEUTICAL, published 2025).

Key:
[1] = target: T1, human CD19 exon1-3-his protein (human, UniProt P15391 20-186, limits assumed); test: ELISA, coated at 2 ug/mL
T1 construct: made in HEK293E cells; also called membrane-distal end; not shown: His tag
T1 sequence (looked up): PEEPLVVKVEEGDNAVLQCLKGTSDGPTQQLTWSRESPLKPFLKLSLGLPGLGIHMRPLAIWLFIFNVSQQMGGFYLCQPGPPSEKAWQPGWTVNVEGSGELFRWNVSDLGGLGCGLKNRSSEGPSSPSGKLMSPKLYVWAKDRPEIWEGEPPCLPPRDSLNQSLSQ
Experimental: (§1) Human CD19-his protein (purchased from ACROBiosystems, catalog number: CD9-H52H2) was diluted with PBS to a final concentration of 4 μg/mL, and then added to a 96-well ELISA plate at 100 μl/well. The plate was sealed with a plastic film and incubated overnight at 4° C., the plate was washed 2 times with PBS the next day, and then a blocking solution [PBS+2% (w/w) BSA] was added for blocking at room temperature for 2 h. The blocking solution was poured off, and 100 nM gradiently diluted CD19 chimeric antibody or control antibody was added at 50 μl/well. After incubation at 37° C. for 2 h, the plate was washed 3 times with PBS. […] TMB substrate was added at 50 μl/well, and incubated at room temperature for 10 min, and then a stop solution (1.0 N HCl) was added at 50 μl/well. The OD450 nm values were read by an ELISA microplate reader (Multimode Plate Reader, EnSight, purchased from Perkin Elmer).
(§2) CD19 protein contains 4 exons in the extracellular region, in which exons 1-3 are located at the membrane-distal end and exon 4 is located at the membrane-proximal end. […] To identify the distribution of antigen binding epitopes of the chimeric antibodies, human CD19 exon 1-3-His (membrane-distal end) was used to coat at 2 μg/mL according to the ELISA method in example 5.1.

[2] = target: T2, murine CD19 protein (murine, UniProt P25918 17-287, limits assumed); test: ELISA, coated murine CD19
T2 construct: bought protein; also called commercial murine CD19
T2 sequence (looked up): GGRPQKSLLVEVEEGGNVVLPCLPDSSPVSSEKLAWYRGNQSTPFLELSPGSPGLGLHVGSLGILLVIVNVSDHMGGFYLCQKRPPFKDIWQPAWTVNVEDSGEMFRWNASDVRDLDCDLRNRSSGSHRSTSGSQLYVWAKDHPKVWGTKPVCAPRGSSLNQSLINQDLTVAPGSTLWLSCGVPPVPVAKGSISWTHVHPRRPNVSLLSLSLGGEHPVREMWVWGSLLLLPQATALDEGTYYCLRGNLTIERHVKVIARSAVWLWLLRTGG
Experimental: as §1
In order to detect the species cross-binding activity of the chimeric antibodies, an ELISA plate was coated with commercial murine CD19 (ACROBiosystems, catalog number: 50510-M08H) and monkey CD19 (ACROBiosystems, catalog number: 90051-C08H), respectively, and the ELISA detection was performed according to the method in example 5.1.

[3] = target: T3, Human CD19-his protein (human, UniProt P15391 20-291); test: ELISA, antibody at 10 nM
T3 construct: bought protein; also called human CD19 protein; recombinant human CD19-His; not shown: His tag
T3 sequence (looked up): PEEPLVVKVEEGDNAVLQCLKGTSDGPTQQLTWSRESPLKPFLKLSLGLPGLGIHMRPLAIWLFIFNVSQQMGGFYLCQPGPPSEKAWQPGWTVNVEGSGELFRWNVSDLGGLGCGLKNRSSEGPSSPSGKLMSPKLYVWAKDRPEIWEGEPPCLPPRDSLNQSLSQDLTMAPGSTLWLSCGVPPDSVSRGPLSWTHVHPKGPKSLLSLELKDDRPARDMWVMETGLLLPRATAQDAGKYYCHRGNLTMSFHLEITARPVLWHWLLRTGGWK
Experimental: as §1

[4] = target: T3, Human CD19-his protein; test: ELISA, antibody at 100 nM
Experimental: as §1

[5] = target: T3, Human CD19-his protein; test: ELISA, antibody at 0.01 nM
Experimental: as §1

[6] = target: T3, Human CD19-his protein; test: ELISA, antibody at 0.10 nM
Experimental: as §1

[7] = target: T3, Human CD19-his protein; test: ELISA, antibody at 1.00 nM
Experimental: as §1

[8] = target: T3, Human CD19-his protein; test: ELISA, antibody at 0.001 nM
Experimental: as §1

[9] = target: T3, Human CD19-his protein; test: ELISA, antibody at 0.0001 nM
Experimental: as §1

[10] = target: T4, human CD19 exon1-3-His tag protein (human, UniProt P15391 20-186, limits assumed); test: ELISA on coated human CD19 exon 1-3-His
T4 construct: membrane-distal part of the extracellular region, made in HEK293E cells; not shown: His tag
T4 sequence (looked up): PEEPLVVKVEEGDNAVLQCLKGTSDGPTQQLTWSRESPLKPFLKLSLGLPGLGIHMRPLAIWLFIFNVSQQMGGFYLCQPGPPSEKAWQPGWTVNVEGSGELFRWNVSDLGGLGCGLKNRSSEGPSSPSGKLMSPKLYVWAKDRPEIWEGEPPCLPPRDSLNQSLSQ
Experimental: as §1, §2

[11] = target: T5, Human CD19-his protein (human, UniProt P15391 20-291); test: SPR Biacore, Ab captured on Protein A, CD19-His analyte
T5 construct: bought protein; also called recombinant human CD19-His; CD19 full-length protein; not shown: His tag
T5 sequence (looked up): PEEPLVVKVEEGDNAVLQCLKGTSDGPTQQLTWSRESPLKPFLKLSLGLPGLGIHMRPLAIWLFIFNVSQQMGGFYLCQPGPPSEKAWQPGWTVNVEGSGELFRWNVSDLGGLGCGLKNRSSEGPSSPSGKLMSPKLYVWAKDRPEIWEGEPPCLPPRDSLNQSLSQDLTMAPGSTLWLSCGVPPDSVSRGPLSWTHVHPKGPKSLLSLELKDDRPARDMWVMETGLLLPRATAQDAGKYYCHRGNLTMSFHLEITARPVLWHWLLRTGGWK
Experimental: A sample buffer and a running buffer were HBS-EP+ (10 mM HEPES, 150 mM NaCl, 3 mM EDTA and 0.05% surfactant P20) (GE Healthcare; BR-1006-69). The flow-through cell was set to 25° C. The sample block was set to 16° C. Both were pretreated with the running buffer. In each cycle, an antibody to be detected was first captured with a Protein A chip, and then a single concentration of CD19 antigen protein was injected. The binding and dissociation processes of the antibody and the antigen protein were recorded, and finally Glycine pH 1.5 (GE Healthcare; BR-1003-54) was used to complete chip regeneration. The binding was measured by injecting different concentrations of recombinant human CD19-His proteins in a solution for 240 s with a flow rate of 30 μl/min. The concentration started from 200 nM (see the detailed results for the actual concentration in the test) and was diluted at 1:1, making a total of 5 concentrations. The dissociation phase was monitored for up to 600 s and was triggered by switching from sample solution to running buffer. The surface was regenerated by washing with a 10 mM glycine solution (pH 1.5) for 30 s at a flow rate of 30 μl/min. Bulk refractive index difference was corrected by subtracting the response obtained from the goat anti-human Fc surface. Blank injection was also subtracted (=double reference). For calculation of apparent KD and other kinetic parameters, Langmuir 1:1 model was used.

Row | Binder | binding result [1] | binding result [2] | OD450 [3] | OD450 [4] | OD450 [5] | OD450 [6] | OD450 [7] | OD450 [8] | OD450 [9] | EC50 (read off the curve) [10] [nM] | Kd [11] [nM] | koff [11] [s⁻¹] | kon [11] [M⁻¹ s⁻¹]
1 | F3.83.9 (antibody, human IgG1, V domains shown, human-murine chimeric antibody, human IgG1) VH: DVQLQESGPGLVKPSQSLSLTCSVTGYSITSGYYWNWIRQFPGNKLEWMGYISYDGGNNYNPSLKNRISITRDTSKNQFFLKLNSVTTEDTATYFCAREDYSNWYFDVWGTGTTVTVSS VL: DIVLTQSPASLAVSLGQRATISCRASQSVSKSSYSYMHWYQQKPGQSPKLLIKYASILKSGVPARFSGSGSGTDFTLNIHPVEEEDTATYYCQHSWEIPWTFGGGTKLEIK | no binding | no binding | 0.6 | 0.94 | 0.06 | 0.11 | 0.36 | 0.05 | 0.05 |  |  |  | 
2 | F3.81.2 (antibody, human IgG1, V domains shown, human-murine chimeric antibody, human IgG1) VH: QVQLQQPGAELVMPGASVKLSCKASAYTFTNYWMHWVKQRPGHGLEWIGEIDPSDSYTDYNQNFKAKATLTVDKSSSTAYMQLSSLTSEDSAVYYCARLMGRYFDVWGTGTTVTVSS VL: DIVMTQSHKFMSTSVGDRVSITCKASQDVSAAVAWYQQKPGQSPKLLINSASYRYTGVPDRFTGSGSGTDFTFTISSVQAEDLAVYYCQQHYSTPLTFGAGTKLELR | no binding | no binding | 1.05 | 1.4 | 0.07 | 0.24 | 0.74 | 0.05 | 0.05 |  |  |  | 
3 | F3.126.15 (antibody, human IgG1, V domains shown, human-murine chimeric antibody, human IgG1) VH: QVQLQQPGAELVMPGASVKLSCKASGYTFTSYWMHWVKQRPGQGLEWIGEIDPSDSYTTYNQNFKGKATLTVDISTSTAYIQLSNLTSEDSAVYYCARLTGNYIHYWGQGTTLTVSS VL: DIVMTQSHKFMSTSVGDRVSITCKASQDVSPAVAWYQQRPGQCPKLLIFSSSYRSTGVPDRFTGSGSGTDFTFTISSVQAEDLAVYYCQQHYSLPLTFGAGTKLELK | no binding | no binding | 0.46 | 0.7 | 0.05 | 0.07 | 0.2 | 0.05 | 0.05 |  |  |  | 
4 | F3.13.2 (antibody, human IgG1, V domains shown, human-murine chimeric antibody, human IgG1) VH: DVQLQESGPGLMKPSQSLSLTCSVTGYSITSGYYWNWIRQFPGNKLEWMGYISYDGSNNYNPSLKNRFSITRDTSKNQFFLKLNSVTTEDTATYYCARRKLTGGPYFDYWGQGTTLTVSS VL: DIVLTQSPASLAVTLGQRATISCRASESVSFHGFHIMHWYQQKPGQPPKLLIYAASHLVSGVPDRFSGSGSETDFTLNIHPVEEEDAAAYFCQQSVEDPWTFGGGTKLEIK | no binding | no binding | 0.29 | 0.45 | 0.05 | 0.06 | 0.18 | 0.05 | 0.05 |  |  |  | 
5 | F3.114.12 (antibody, human IgG1, V domains shown, human-murine chimeric antibody, human IgG1) VH: DVQLQESGPGLVKPSQSLSLTCSVTGYSITSGYDWNWIRQFPGNKLEWMGYISYDGKNNYNPSLRNRISITRDTSKNQFFLKLNSVTTEDTATYYCARRDLRGYFDVWGTGTTVTVSS VL: DIVLTQSPATLSVTPGDRVSLSCRASQSISNYLHWYQQKSHESPRLLIKYASLSISGIPSRFSGSGSGTDFTLSINSVETEDFGVYFCQQSNSWPLTFGAGTKLELK | no binding | no binding | 0.46 | 0.61 | 0.05 | 0.08 | 0.24 | 0.05 | 0.05 |  |  |  | 
6 | F3.148.10 (antibody, human IgG1, V domains shown, human-murine chimeric antibody, human IgG1 constant) VH: EVQLQQSGAELVRPGSSVTMSCKTSGYTFTNYGINWVKQRPGQGLEWIGYIFIGNDYTEYNEKFKGKATLTSDTSSSTAYMQLSSLTSEDSAIYFCTRFYSNYYGMDPWGQGTSVTVSS VL: not shown |  |  |  |  |  |  |  |  |  | ~0.2 | 5.32 | 0.00119 | 224000
7 | F3.5.1 (antibody, human IgG1, V domains shown, human-murine chimeric antibody, human IgG1) VH: QAQLQQSGPELVKPGASVKISCKASGYAFSGSWMNWVQQRPGKGLEWIGRIYPGDGDTYYNGKFKDKAILTADKSSSTAYMQLSSLTSEDSAVYFCAQLRYRYVMDYWGQGTSVTVSS VL: DIVLTQSPASLAVSLGQRATISCRASESVSIHGSHLMHWYQQKPGQPPRLLIYAASNLESGVPARFSGSGSETDFTLNIHPVEEEDAATYFCQQGIKDPYTFGGGTKLEIK | no binding | no binding | 1.75 | 2.01 | 0.11 | 0.5 | 1.38 | 0.06 | 0.05 |  |  |  | 
8 | F3.40.14 (antibody, human IgG1, V domains shown, human-murine chimeric antibody, human IgG1) VH: QAQLQQSGPELVKPGASVKISCKASGYAFSGSWMNWVQQRPGKGLEWIGRIYPGDGDTYYSGKFKDKAILTADTSSSTAYMQLSSLTSEDSAVYFCAQLRSRYVMDYWGQGASVTVSS VL: DIVLTQSPASLAVSLGQRATISCRASESVSIHGTHLMHWYQQKPGQPPRLLIYAASNLESGVPARFSGSGSETDFTLNIHPVEEEDAATYFCQQGIDDPYTFGGGTKLEIK | no binding | no binding | 1.01 | 1.19 | 0.06 | 0.11 | 0.42 | 0.05 | 0.05 |  |  |  | 
9 | F3.74.4 (antibody, human IgG1, V domains shown, human-murine chimeric antibody, human IgG1 constant) VH: QVQLQQSGAELVRPGASVTLSCKASGYTFTDYEMHWVKQTPVHGLEWIGGIAPETGLTTYNQKFEDKAILTADKSSRTAYMELRSLTSEDSAVYFCNPNNYGLWGTGTTVTVSS VL: not shown |  |  |  |  |  |  |  |  |  | ~0.3 | 18.7 | 0.000879 | 47100
